According to PMC5653234:

Assays:
[1] = biological target: MBP-AKAP79 (A-kinase anchoring protein 79) with C-terminal 10x His-tag (human) (UniProt P24588); assay: SEC-MALS; 500 μL purified complex (~2 mg/mL) on a WTC-050S5 SEC column at 0.5 mL/min, in-line refractometer and light scattering
[2] = biological target: MBP-AKAP79 (A-kinase anchoring protein 79) with C-terminal 10x His-tag (human) (UniProt P24588); assay: AlphaScreen or HTRF; competition: 100 nM biotinylated PP2B and 100 nM His-tagged AKAP79 or fragment, serial dilutions of untagged PP2B; streptavidin donor and nickel acceptor beads; 25 mM HEPES, pH 7.5, 100 mM NaCl, 0.1% BSA, 3 mM CaCl2, 2 μg/mL CaM; one-site IC50 fit taken to approximate the Kd
[3] = biological target: His-tagged AKAP79 N-terminal fragment encompassing the LKIP motif (human) (UniProt P24588); assay: as above
[4] = biological target: His-tagged AKAP79 C-terminal fragment (PIAIIIT region) (human) (UniProt P24588); assay: as above
[5] = biological target: AKAP79-CaNAR (full-length AKAP79 fused to the N-terminus of CaNAR2pax) (human) (UniProt P24588)
[6] = biological target: AKAP79∆L-CaNAR (AKAP79 lacking residues 122-136 fused to CaNAR2pax) (human) (UniProt P24588)

Substance: PP2B holoenzyme (calcium/calmodulin-dependent protein phosphatase 2B; A and B subunits), untagged (from UniProt Q08209 1-521; P63098 1-170) (complex)
- stoichiometry N [1]: 1
- Kd [2]: 12 µM
- Kd [3]: 81 µM
- Kd [4]: 5.6 µM

Substance: PP2B, endogenous in HEK293 cells (from UniProt Q08209 1-521; P63098 1-170) (complex)
- time to half maximal YFP/CFP FRET response of the reporter after 1 μM ionomycin (HeLa cells) [5]: 3.58 min
- time to half maximal YFP/CFP FRET response of the reporter after 1 μM ionomycin (HeLa cells) [6]: 2.41 min

Substance: calmodulin (CaM) (from UniProt P0DP23 1-149) (natural protein; other documents disagree on this pair)
- stoichiometry N [1]: 1
